The experiment concerns the target M1-linked di-ubiquitin (UniProt P0CG48 1-76; P0CG48 1-76). Nature of the experiment: ITC. Background: In ITC the heat of successive injections is recorded.

B1: mouse HOIL-1L NZF domain (residues Pro192-Gln250) T207E (domain or fragment)
chain: GPLGSPEPVGWQCPGCTFINKPERPGCEMCCRARPETYQIPASYQPDEEERARLAGEEEALRQYQQ
Take B1: the equilibrium dissociation constant (Kd) – broadly, the free concentration of one partner at which half of the binding sites on the other are occupied at equilibrium, for simple one-to-one binding – is 15.9 µM.

The values are drawn from PMC10511788 (2023).
